B1: TBLR1-LgBiT wild type [not stated] / ANKRD11-SmBiT [not stated] (parent complex)
chain 1: MSISSDEVNFLVYRYLQESGFSHSAFTFGIESHISQSNINGALVPPAALISIIQKGLQYVEAEVSINEDGTLFDGRPIESLSLIDAVMPDVVQTRQQAYRDKLAQQQAAAAAAAAAAASQQGSAKNGENTANGEENGAHTIANNHTDMMEVDGDVEIPPNKAVVLRGHESEVFICAWNPVSDLLASGSGDSTARIWNLSENSTSGSTQLVLRHCIREGGQDVPSNKDVTSLDWNSEGTLLATGSYDGFARIWTKDGNLASTLGQHKGPIFALKWNKKGNFILSAGVDKTTIIWDAHTGEAKQQFPFHSAPALDVDWQSNNTFASCSTDMCIHVCKLGQDRPIKTFQGHTNEVNAIKWDPTGNLLASCSDDMTLKIWSMKQDNCVHDLQAHNKEIYTIKWSPTGPGTNNPNANLMLASASFDSTVRLWDVDRGICIHTLTKHQEPVYSVAFSPDGRYLASGSFDKCVHIWNTQTGALVHSYRGTGGIFEVCWNAAGDKVGASASDGSVCVLDLRK
chain 2: MPKGGCPKAPQQEELPLSSDMVEKQTGKKDKDKVSLTKTPKLERGDGGKEVRERASKRKLPFTAGANGEQKDSDTEKQGPERKRIKKEPVTRKAGLLFGMGLSGIRAGYPLSERQQVALLMQMTAEESANSPVDTTPKHPSQSTVCQKGTPNSASKTKDKVNKRNERGETRLHRAAIRGDARRIKELISEGADVNVKDFAGWTALHEACNRGYYDVAKQLLAAGAEVNTKGLDDDTPLHDAANNGHYKVVKLLLRYGGNPQQSNRKGETPLKVANSPTMVNLLLGKGTYTSSEESSTESSEEEDAPSFAPSSSVDGNNTDSEFEKGLKHKAKNPEPQKATAPVKDEYEFDEDDEQDRVPPVDDKHLLKKDYRKETKSNSFISIPKMEVKSYTKNNTIAPKKASHRILSDTSDEEDASVTVGTGEKLRLSAHTILPGSKTREPSNAKQQKEKNKVKKKRKKETKGREVRFGKRSDKFCSSESESESSESGEDDRDSLGSSGCLKGSPLVLKDPSLFSSLSASSTSSHGSSAAQKQNPSHTDQHTKHWRTDNWKTISSPAWSEVSSLSDSTRTRLTSESDYSSEGSSVESLKPVRKRQEHRKRASLSEKKSPFLSSAEGAVPKLDKEGKVVKKHKTKHKHKNKEKGQCSISQELKLKSFTYEYEDSKQKSDKAILLENDLSTENKLKVLKHDRDHFKKEEKLSKMKLEEKEWLFKDEKSLKRIKDTNKDISRSFREEKDRSNKAEKERSLKEKSPKEEKLRLYKEERKKKSKDRPSKLEKKNDLKEDKISKEKEKIFKEDKEKLKKEKVYREDSAFDEYCNKNQFLENEDTKFSLSDDQRDRWFSDLSDSSFDFKGEDSWDSPVTDYRDMKSDSVAKLILETVKEDSKERRRDSRAREKRDYREPFFRKKDRDYLDKNSEKRKEQTEKHKSVPGYLSEKDKKRRESAEAGRDRKDALESCKERRDGRAKPEEAHREELKECGCESGFKDKSDGDFGKGLEPWERHHPAREKEKKDGPDKERKEKTKPERYKEKSSDKDKSEKSILEKCQKDKEFDKCFKEKKDTKEKHKDTHGKDKERKASLDQGKEKKEKAFPGIISEDFSEKKDDKKGKEKSWYIADIFTDESEDDRDSCMGSGFKMGEASDLPRTDGLQEKEEGREAYASDRHRKSSDKQHPERQKDKEPRDRRKDRGAADAGRDKKEKVFEKHKEKKDKESTEKYKDRKDRASVDSTQDKKNKQKLPEKAEKKHAAEDKAKSKHKEKSDKEHSKERKSSRSADAEKSLLEKLEEEALHEYREDSNDKISEVSSDSFTDRGQEPGLTAFLEVSFTEPPGDDKPRESACLPEKLKEKERHRHSSSSSKKSHDRERAKKEKAEKKEKGEDYKEGGSRKDSGQYEKDFLEADAYGVSYNMKADIEDELDKTIELFSTEKKDKNDSEREPSKKIEKELKPYGSSAINILKEKKKREKHREKWRDEKERHRDRHADGLLRHHRDELLRHHRDEQKPATRDKDSPPRVLKDKSRDEGPRLGDAKLKEKFKDGAEKEKGDPVKMSNGNDKVAPSKDPGKKDARPREKLLGDGDLMMTSFERMLSQKDLEIEERHKRHKERMKQMEKLRHRSGDPKLKEKAKPADDGRKKGLDIPAKKPPGLDPPFKDKKLKESTPIPPAAENKLHPASGADSKDWLAGPHMKEVLPASPRPDQSRPTGVPTPTSVLSCPSYEEVMHTPRTPSCSADDYADLVFDCADSQHSTPVPTAPTSACSPSFFDRFSVASSGLSENASQAPARPLSTNLYRSVSVDIRRTPEEEFSVGDKLFRQQSVPAASSYDSPMPPSMEDRAPLPPVPAEKFACLSPGYYSPDYGLPSPKVDALHCPPAAVVTVTPSPEGVFSSLQAKPSPSPRAELLVPSLEGALPPDLDTSEDQQATAAIIPPEPSYLEPLDEGPFSAVITEEPVEWAHPSEQALASSLIGGTSENPVSWPVGSDLLLKSPQRFPESPKRFCPADPLHSAAPGPFSASEAPYPAPPASPAPYALPVAEPGLEDVKDGVDAVPAAISTSEAAPYAPPSGLESFFSNCKSLPEAPLDVAPEPACVAAVAQVEALGPLENSFLDGSRGLSHLGQVEPVPWADAFAGPEDDLDLGPFSLPELPLQTKDAADGEAEPVEESLAPPEEMPPGAPGVINGGDVSTVVAEEPPALPPDQASTRLPAELEPEPSGEPKLDVALEAAVEAETVPEERARGDPDSSVEPAPVPPEQRPLGSGDQGAEAEGPPAASLCAPDGPAPNTVAQAQAADGAGPEDDTEASRAAAPAEGPPGGIQPEAAEPKPTAEAPKAPRVEEIPQRMTRNRAQMLANQSKQGPPPSEKECAPTPAPVTRAKARGSEDDDAQAQHPRKRRFQRSTQQLQQQLNTSTQQTREVIQQTLAAIVDAIKLDAIEPYHSDRANPYFEYLQIRKKIEEKRKILCCITPQAPQCYAEYVTYTGSYLLDGKPLSKLHIPVIAPPPSLAEPLKELFRQQEAVRGKLRLQHSIEREKLIVSCEQEILRVHCRAARTIANQAVPFSACTMLLDSEVYNMPLESQGDENKSVRDRFNARQFISWLQDVDDKYDRMKTCLLMRQQHEAAALNAVQRMEWQLKVQELDPAGHKSLCVNEVPSFYVPMVDVNDDFVLLPA
B2: EGFP-ANKRD11 full length (FL), wild type [not stated] / endogenous TBLR1 of HEK293T cells and of wild-type Flp-In T-REx 293 cells [human (endogenous in HEK293T and Flp-In T-REx 293)] (parent complex)
chain 1: B1 chain 2
chain 2: B1 chain 1
B3: TBLR1-LgBiT wild type [not stated] / SETD5-SmBiT [not stated] (parent complex)
chain 1: B1 chain 1
chain 2: MSIAIPLGVTTSDTSYSDMAAGSDPESVEASPAVNEKSVYSTHNYGTTQRHGCRGLPYATIIPRSDLNGLPSPVEERCGDSPNSEGETVPTWCPCGLSQDGFLLNCDKCRGMSRGKVIRLHRRKQDNISGGDSSATESWDEELSPSTVLYTATQHTPTSITLTVRRTKPKKRKKSPEKGRAAPKTKKIKNSPSEAQNLDENTTEGWENRIRLWTDQYEEAFTNQYSADVQNALEQHLHSSKEFVGKPTILDTINKTELACNNTVIGSQMQLQLGRVTRVQKHRKILRAARDLALDTLIIEYRGKVMLRQQFEVNGHFFKKPYPFVLFYSKFNGVEMCVDARTFGNDARFIRRSCTPNAEVRHMIADGMIHLCIYAVSAITKDAEVTIAFDYEYSNCNYKVDCACHKGNRNCPIQKRNPNATELPLLPPPPSLPTIGAETRRRKARRKELEMEQQNEASEENNDQQSQEVPEKVTVSSDHEEVDNPEEKPEEEKEEVIDDQENLAHSRRTREDRKVEAIMHAFENLEKRKKRRDQPLEQSNSDVEITTTTSETPVGEETKTEAPESEVSNSVSNVTIPSTPQSVGVNTRRSSQAGDIAAEKLVPKPPPAKPSRPRPKSRISRYRTSSAQRLKRQKQANAQQAELSQAALEEGGSNSLVTPTEAGSLDSSGENRPLTGSDPTVVSITGSHVNRAASKYPKTKKYLVTEWLNDKAEKQECPVECPLRITTDPTVLATTLNMLPGLIHSPLICTTPKHYIRFGSPFIPERRRRPLLPDGTFSSCKKRWIKQALEEGMTQTSSVPQETRTQHLYQSNENSSSSSICKDNADLLSPLKKWKSRYLMEQNVTKLLRPLSPVTPPPPNSGSKSPQLATPGSSHPGEEECRNGYSLMFSPVTSLTTASRCNTPLQFELCHRKDLDLAKVGYLDSNTNSCADRPSLLNSGHSDLAPHPSLGPTSETGFPSRSGDGHQTLVRNSDQAFRTEFNLMYAYSPLNAMPRADGLYRGSPLVGDRKPLHLDGGYCSPAEGFSSRYEHGLMKDLSRGSLSPGGERACEGVPSAPQNPPQRKKVSLLEYRKRKQEAKENSAGGGGDSAQSKSKSAGAGQGSSNSVSDTGAHGVQGSSARTPSSPHKKFSPSHSSMSHLEAVSPSDSRGTSSSHCRPQENISSRWMVPTSVERLREGGSIPKVLRSSVRVAQKGEPSPTWESNITEKDSDPADGEGPETLSSALSKGATVYSPSRYSYQLLQCDSPRTESQSLLQQSSSPFRGHPTQSPGYSYRTTALRPGNPPSHGSSESSLSSTSYSSPAHPVSTDSLAPFTGTPGYFSSQPHSGNSTGSNLPRRSCPSSAASPTLQGPSDSPTSDSVSQSSTGTLSSTSFPQNSRSSLPSDLRTISLPSAGQSAVYQASRVSAVSNSQHYPHRGSGGVHQYRLQPLQGSGVKTQTGLS

Variants of: B1
Test: NanoLuc complementation assay; n = 3–5 independent transfections per TBLR1 mutant; read off a plot

Variant	ratio to parent
chain 1 G70D	~0.07
chain 1 F10L	~0.1
chain 1 L83Q	~0.06
chain 1 G29D	~0.06
chain 1 E63K	~0.37

Variants of: B1
Test: co-immunoprecipitation, mass spectrometry; TBLR1-null Flp-In T-REx 293 cells; n = 3 independent transfections; read off a plot

Variant	screen value [log2]
chain 1 G70D	~1.9

Variants of: B2
Test: co-immunoprecipitation, mass spectrometry; HEK293T cells; n = 3 independent transfections per mutant; read off a plot

Variant	screen value [log2]
chain 1 L2605R	~8.2
chain 1 E2522K	~2.6
chain 1 S2475P	~8.3
chain 1 R2523W	~5.7

Variants of: B3
Test: NanoLuc complementation assay; n = 6–7 independent transfections per TBLR1 mutant; read off a plot

Variant	ratio to parent
chain 1 L282P	~0.05
chain 1 D369E	~0.15
chain 1 D328G	~0.6
chain 1 D328H	~0.55
chain 1 A311P	~0.55
chain 1 H441R	~0.55
chain 1 S459R	~0.06
chain 1 Y446D	~1.1
chain 1 Y446C	~1.3
chain 1 T321S	~1.1
chain 1 Y245C	~1.2
chain 1 D370N	~0.05
chain 1 Y395C	~0.87
chain 1 H213Q	~1.2
chain 1 S417R	~0.06
chain 1 P444R	~0.7
chain 1 G460D	~0.07
chain 1 F270L	~1.8

Variants of: B3
Test: co-immunoprecipitation, mass spectrometry; TBLR1-null Flp-In T-REx 293 cells; n = 3 independent transfections; read off a plot

Variant	screen value [log2]
chain 1 D370N	~6.9

Source: publication PMC13385800 (2026)
